# Laboratory results: the supplement of paper PMC9112550, “Optimization of the antimicrobial peptide Bac7 by deep mutational scanning” (BMC Biology, 2022)
# System: Escherichia coli TOP10
# Experiment: shrunken log2 fold change of peptide-encoding DNA abundance (4.5 h post-induction vs induction); higher = less antimicrobial activity (less host growth inhibition)
# Conditions: time post-induction: 4.5 h; library: site-saturation at positions 5, 18, 19, 20
# 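Also: peptides expressed intracellularly from a pBAD plasmid library in pooled LB shake-flask culture, induced with 0.3% L-arabinose, DNA abundance read by NGS, three biological replicates, DESeq2 with apeglm shrinkage.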
row,Sequence,shrunken log2 fold change
1,RRIRFRPPRLPRPRPRPAISPRP,-0.193
2,RRIRARPPRLPRPRPRPNMWPRP,0.188
3,RRIRTRPPRLPRPRPRPIRYPRP,-0.0148
4,RRIRSRPPRLPRPRPRPYGRPRP,-0.151
5,RRIRARPPRLPRPRPRPKGMPRP,0.4
6,RRIRYRPPRLPRPRPRPDHRPRP,-0.227
7,RRIRMRPPRLPRPRPRPKMEPRP,1.45
8,RRIRRRPPRLPRPRPRPCDTPRP,-0.092
9,RRIRSRPPRLPRPRPRPPVQPRP,0.319
10,RRIRMRPPRLPRPRPRPPTHPRP,0.696
11,RRIRARPPRLPRPRPRPDGAPRP,0.673
12,RRIRTRPPRLPRPRPRPICHPRP,0.055
13,RRIRERPPRLPRPRPRPNDVPRP,0.0254
14,RRIRTRPPRLPRPRPRPMRIPRP,-0.0254
15,RRIRFRPPRLPRPRPRPCNNPRP,-0.82
16,RRIRWRPPRLPRPRPRPWYYPRP,-0.321
17,RRIRTRPPRLPRPRPRPERMPRP,0.275
18,RRIRNRPPRLPRPRPRPYDIPRP,-0.0698
19,RRIRNRPPRLPRPRPRPGWTPRP,0.0174
20,RRIRARPPRLPRPRPRPRTTPRP,0.755
21,RRIRLRPPRLPRPRPRPFMHPRP,-0.326
22,RRIRLRPPRLPRPRPRPDIFPRP,-0.282

row,Sequence,shrunken log2 fold change
1,RRIRNRPPRLPRPRPRPQMLPRP,-0.409
2,RRIRGRPPRLPRPRPRPKFTPRP,0.12
3,RRIRCRPPRLPRPRPRPSLAPRP,0.133
4,RRIRFRPPRLPRPRPRPSGAPRP,0.103
5,RRIRNRPPRLPRPRPRPNIHPRP,-0.457
6,RRIRNRPPRLPRPRPRPEYPPRP,-0.243
7,RRIRQRPPRLPRPRPRPFSLPRP,0.14
8,RRIRLRPPRLPRPRPRPSSQPRP,-0.0758
9,RRIRERPPRLPRPRPRPFHWPRP,-0.0575
10,RRIRRRPPRLPRPRPRPFIVPRP,-0.0553
11,RRIRIRPPRLPRPRPRPTFSPRP,-0.545
12,RRIRRRPPRLPRPRPRPFGPPRP,0.165
13,RRIRMRPPRLPRPRPRPDWQPRP,0.198
14,RRIRRRPPRLPRPRPRPMFCPRP,0.235
15,RRIRCRPPRLPRPRPRPMPCPRP,-0.688
16,RRIRLRPPRLPRPRPRPAVHPRP,-0.149
17,RRIRCRPPRLPRPRPRPHSVPRP,-0.613
18,RRIRLRPPRLPRPRPRPMFAPRP,0.082
19,RRIRCRPPRLPRPRPRPREFPRP,0.339
20,RRIRHRPPRLPRPRPRPDFVPRP,-0.242
21,RRIRKRPPRLPRPRPRPINDPRP,-0.48
22,RRIRMRPPRLPRPRPRPFPKPRP,0.385

row,Sequence,shrunken log2 fold change
1,RRIRERPPRLPRPRPRPVCRPRP,-0.0104
2,RRIRSRPPRLPRPRPRPGYSPRP,-0.407
3,RRIRERPPRLPRPRPRPRPDPRP,0.205
4,RRIRMRPPRLPRPRPRPSLKPRP,0.359
5,RRIRMRPPRLPRPRPRPYKWPRP,-0.141
6,RRIRVRPPRLPRPRPRPVKDPRP,0.0828
7,RRIRGRPPRLPRPRPRPTVHPRP,1.77
8,RRIRVRPPRLPRPRPRPCNCPRP,-0.0105
9,RRIRRRPPRLPRPRPRPALIPRP,1.05
10,RRIRVRPPRLPRPRPRPGRPPRP,0.63
11,RRIRRRPPRLPRPRPRPNMAPRP,0.0119
12,RRIRIRPPRLPRPRPRPLQNPRP,-0.359
13,RRIRMRPPRLPRPRPRPKAAPRP,3.33
14,RRIRGRPPRLPRPRPRPLWAPRP,0.681
15,RRIRSRPPRLPRPRPRPCLWPRP,0.0729
16,RRIRHRPPRLPRPRPRPYDDPRP,-0.00822
17,RRIRVRPPRLPRPRPRPCQPPRP,-0.236
18,RRIRMRPPRLPRPRPRPGKRPRP,0.078
19,RRIRRRPPRLPRPRPRPRYQPRP,0.0511
20,RRIRTRPPRLPRPRPRPYGRPRP,-0.27
21,RRIRQRPPRLPRPRPRPPAIPRP,-0.0632
22,RRIRLRPPRLPRPRPRPTLAPRP,0.423

row,Sequence,shrunken log2 fold change
1,RRIRQRPPRLPRPRPRPIVQPRP,-0.0505
2,RRIRGRPPRLPRPRPRPSMGPRP,0.34
3,RRIRTRPPRLPRPRPRPKKVPRP,-0.282
4,RRIRSRPPRLPRPRPRPVKFPRP,0.0903
5,RRIRDRPPRLPRPRPRPWTPPRP,-0.0489
6,RRIRYRPPRLPRPRPRPQSLPRP,-0.0376
7,RRIRIRPPRLPRPRPRPHMYPRP,-0.485
8,RRIRSRPPRLPRPRPRPHSPPRP,0.146
9,RRIRCRPPRLPRPRPRPDEGPRP,-0.00232
10,RRIRGRPPRLPRPRPRPAHSPRP,0.0755
11,RRIRMRPPRLPRPRPRPINVPRP,-0.0528
12,RRIRTRPPRLPRPRPRPVSCPRP,-0.206
13,RRIRPRPPRLPRPRPRPMWSPRP,-0.276
14,RRIRSRPPRLPRPRPRPSPSPRP,0.0408
15,RRIRPRPPRLPRPRPRPAWFPRP,0.117
16,RRIRCRPPRLPRPRPRPNVNPRP,-0.461
17,RRIRHRPPRLPRPRPRPSNEPRP,-0.271
18,RRIRSRPPRLPRPRPRPADNPRP,0.00328
19,RRIRERPPRLPRPRPRPVHAPRP,-0.0762
20,RRIRNRPPRLPRPRPRPPRCPRP,0.389
21,RRIRVRPPRLPRPRPRPSKPPRP,-0.242
22,RRIRGRPPRLPRPRPRPFKMPRP,0.143

row,Sequence,shrunken log2 fold change
1,RRIRNRPPRLPRPRPRPRDTPRP,-0.457
2,RRIRFRPPRLPRPRPRPGVRPRP,-0.118
3,RRIRMRPPRLPRPRPRPVNEPRP,0.0186
4,RRIRDRPPRLPRPRPRPNCYPRP,-0.414
5,RRIRWRPPRLPRPRPRPVAHPRP,0.00472
6,RRIRKRPPRLPRPRPRPCCMPRP,0.103
7,RRIRWRPPRLPRPRPRPIFWPRP,-0.00424
8,RRIRIRPPRLPRPRPRPWMHPRP,0.0105
9,RRIRPRPPRLPRPRPRPHGSPRP,0.063
10,RRIRLRPPRLPRPRPRPQNWPRP,0.1
11,RRIRYRPPRLPRPRPRPARHPRP,0.0712
12,RRIRNRPPRLPRPRPRPHYTPRP,-0.0895
13,RRIRVRPPRLPRPRPRPHDSPRP,0.0311
14,RRIRLRPPRLPRPRPRPYDMPRP,-0.921
15,RRIRERPPRLPRPRPRPKSMPRP,-0.307
16,RRIRCRPPRLPRPRPRPAREPRP,0.0467
17,RRIRVRPPRLPRPRPRPHGQPRP,-0.0326
18,RRIRRRPPRLPRPRPRPEGQPRP,0.131
19,RRIRFRPPRLPRPRPRPFSAPRP,-0.274
20,RRIRCRPPRLPRPRPRPLQWPRP,-0.0609
21,RRIRRRPPRLPRPRPRPLVAPRP,0.755
